This is an account of results in patent US20240398964A1, “PEPTIDE FOR PENETRATING BLOOD-BRAIN BARRIER AND USE THEREOF” (NIBEC CO., LTD., priority 2021, published 2024).

Data set [1] is described as follows: Brain delivery of peptide-antibody complex in normal animals (IVIS organ fluorescence, Optix MX3 3D brain image). It counts as in vivo, hairless mouse (SKH-1). Particulars: Cy5.5 labeled, intravenous 4 mg/kg; for fluorescence in the brain (IVIS): FIG. 4(a); for extent of penetration into the brain (three-dimensional image): Optix MX3, FIG. 4(b). As for the experimental part: Cy5.5 labeled SEQ ID NO: 17 peptide for penetrating the blood-brain barrier, Cy5.5 labeled SEQ ID NO: 59 antibody, and the complex of Cy5.5-labeled SEQ ID NO: 17 peptide for penetrating the blood-brain barrier and SEQ ID NO: 59 antibody were injected intravenously at 4 mg/kg each to hairless mouse (SKH-1, female, 6 weeks old, OrientBio), and fluorescence in each organ (brain, liver, lung, spleen, kidney, heart) was measured at excitation: 685 nm and emission: 706 nm using IVIS (Perkin Elmer). In addition, three-dimensional images of the brain alone were measured using Optix MX3 (ART Advanced Research Technologies Inc.).

A short description of data set [2]: Concentration in blood and brain tissue of peptide-antibody complex in normal animals (IVIS). The data set is classed as in vivo, hairless mouse (SKH-1). The protocol:
The control cell permeability peptide (TAT) and antibody of SEQ ID NO: 59 were prepared in the same manner as the expression method in Example 2 and labeled with cy5.5. The complex of the peptide for penetrating the blood-brain barrier of SEQ ID NO: 41 in which CGGGG was introduced in N term and the antibody of SEQ ID NO: 59 prepared in Example 2 was labeled labeled with Cy5.5. The antibody of SEQ ID NO: 59 was labeled with Cy5.5 and injected intravenously into hairless mouse (SKH-1, female, 6 weeks old, OrientBio) at 10 mg/kg each. Concentrations in brain and blood were measured at excitation: 685 nm and emission: 706 nm using IVIS (Perkin Elmer) until day 24, and the results are shown in FIG. 5.

Another data set relates to U87MG-Luc 2 glioblastoma. The experiment in a line: Brain tumor animal model, bioluminescence and distribution at tumor site. It counts as in vivo, mouse. Particulars: for bioluminescence of U87MG-Luc brain tumor cells: 1 mg/kg intravenous every 3 days, 4 doses, observed 16 days. As for the experimental part:
Using a brain tumor animal model, the ability of the complex of the peptide for penetrating the blood-brain barrier and antibody to penetrate the brain, inhibit brain tumors, and be distributed in the brain parenchyma was measured. Specifically, U87MG-Luc 2 (ATCC, HTB-14-LUC2™) cells, a luciferase-expressing U87MG glioblastoma, were cultured in DMEM medium supplemented with 10% FBS and 1% antibiotics. Nude 5- to 7-week-old mouse (Orient Bio) was anesthetized with isoflurane and immobilized using ear bars inside a stereotaxic instrument. After incising the scalp at the surgical site, a hole was made using a sterile drill 2 mm to the right to and 2 mm under the bregma. Then, 1.0×10^5/10 μL U87MG-Luc-2 cells were injected through the above hole with a 26G Hamilton syringe (1 μl/min), and after injection, the hole was closed with bone wax and sutured to close the scalp. The proliferation of transplanted glioblastoma was obtained by injecting D-luciferin potassium (15 mg/mL dissolved in PBS, sigma), a substrate of luciferase, at 150 mg/kg, to a mouse, and sacrificing it after 10 min, and measuring the bioluminescence using IVIS (Perkin Elmer), and the results are shown in FIG. 6.
Starting 4 days after glioblastoma transplantation, 1 mg/kg of the complex of CGGGG-SEQ ID NO: 41 peptide for penetrating the blood-brain barrier and SEQ ID NO: 59 antibody and 1 mg/kg SEQ ID NO: 59 antibody were injected intravenously. The administration interval between doses was every 3 days for a total of 4 doses for 16 days. […] FIG. 6 (a) is the photo of an IVIS observation of bioluminescence of U87MG-Luc cells on day 16. […] After 16 days of bioluminescence observation, the bioluminescence continued to increase in the glioblastoma transplanted and untreated group.
The complex of a peptide for penetrating the blood-brain barrier of CGGGG-SEQ ID NO: 41 labeled with cy5.5 and a SEQ ID NO: 59 antibody was administered to the same animal model 8 hours before sacrifice, and the brain was harvested. After frozen sectioning, the distribution of fluorescence was observed by confocal microscopy.

The mark [3] stands for this setting: Cy5.5 labeled, intravenous 10 mg/kg.

As to VSRRRRRRRGGRRRRR-VPALR [SEQ ID NO: 17], in data set [1], the “fluorescence in the brain (IVIS)” value is “fluorescence could be observed in the brain” and the “extent of penetration into the brain (three-dimensional image)” value (“extent of penetration into the brain” below) is recorded as “the extent of penetration into the brain was large”.

B1: complex of Cy5.5-labeled SEQ ID NO: 17 peptide for penetrating the blood-brain barrier and SEQ ID NO: 59 antibody: complex of SEQ ID NO: 17 blood-brain barrier penetrating peptide and SEQ ID NO: 59 … (conjugate)
chain 1: VSRRRRRRGGRRRRVPALR
chain 2: MAWVWTLLFLMAAAQSIQAEWIKQRPGQGLEWIGVIHPGNGGTNYNENFKGKATLTADKSSSTAYMQLSSLTSDDSAVYFCASGNDGSYWGQGTTVTVSSGGGGSGKGGSGGGGSGGGGSDIELTQSPSSLTVTAGEKVTMSCKSSQSLLNSGDQKIYLTWYQQKPGQPPKLLIYWASTRESGVPDRFTGSVSGTDFTLTISSVQAEDLAVYYCQNDYNYPYTFGGGTKCLEIKRGSENLYFQGGSGKPIPNPLLGLDSTGGSGGSHHHHHH
modifications: Cy5.5 label; conjugated complex
Turning to B1, in data set [1], the “fluorescence in the brain (IVIS)” value is given as “fluorescence could be observed in the brain” and the “extent of penetration into the brain” value is “the extent of penetration into the brain was large”.

B2: SEQ ID NO: 59 antibody: antibody represented by amino acid sequence of SEQ ID NO: 59, has therapeutic efficacy in glioblastoma (protein)
chain: MAWVWTLLFLMAAAQSIQAEWIKQRPGQGLEWIGVIHPGNGGTNYNENFKGKATLTADKSSSTAYMQLSSLTSDDSAVYFCASGNDGSYWGQGTTVTVSSGGGGSGKGGSGGGGSGGGGSDIELTQSPSSLTVTAGEKVTMSCKSSQSLLNSGDQKIYLTWYQQKPGQPPKLLIYWASTRESGVPDRFTGSVSGTDFTLTISSVQAEDLAVYYCQNDYNYPYTFGGGTKCLEIKRGSENLYFQGGSGKPIPNPLLGLDSTGGSGGSHHHHHH
For B2, in data set [1], the “fluorescence in the brain (IVIS)” value is “fluorescence was not observed in the brain” and the “extent of penetration into the brain” value is on record as “observed to a lesser extent inside the brain”. For the same molecule, in data set [2] (setting [3]), the “fluorescence in brain tissue” value is “no fluorescence was measured in brain tissue”. The “time to clearance from the blood” value in data set [2] (Cy5.5 labeled, intravenous 10 mg/kg, measured until day 24) is given as no more than 12 days. Besides, the “bioluminescence of U87MG-Luc brain tumor cells” value with U87MG-Luc 2 glioblastoma is “many brain tumor cells survived”.

B3: complex of CGGGG-SEQ ID NO: 41 peptide for penetrating the blood-brain barrier and SEQ ID NO: 59 antibody: SEQ ID NO: 41 peptide with N-terminal linker CGGGG chemically conjugated to antibody of SEQ … (conjugate)
chain 1: VSRRRRRRGGRRRRHAIYPRH
chain 2: MAWVWTLLFLMAAAQSIQAEWIKQRPGQGLEWIGVIHPGNGGTNYNENFKGKATLTADKSSSTAYMQLSSLTSDDSAVYFCASGNDGSYWGQGTTVTVSSGGGGSGKGGSGGGGSGGGGSDIELTQSPSSLTVTAGEKVTMSCKSSQSLLNSGDQKIYLTWYQQKPGQPPKLLIYWASTRESGVPDRFTGSVSGTDFTLTISSVQAEDLAVYYCQNDYNYPYTFGGGTKCLEIKRGSENLYFQGGSGKPIPNPLLGLDSTGGSGGSHHHHHH
modifications: N-terminal CGGGG linker; chemical conjugation
For B3, the “fluorescence in brain tissue, % of the initial dose” value in data set [2] (4 days after intravenous injection, 10 mg/kg) is reported as “approximately 7%”. The “blood levels compared with the antibody linked to TAT” value in data set [2] (setting [3]) is “higher”. Further, the “bioluminescence of U87MG-Luc brain tumor cells” value in the data set on U87MG-Luc 2 glioblastoma was “the bioluminescence caused by brain tumor cells decreased”. Besides, the “distribution of fluorescence in the brain (confocal, frozen sections)” value in the data set with U87MG-Luc 2 glioblastoma (cy5.5 labeled, administered 8 hours before sacrifice, FIG. 6(c)) was “distributed in the area where the brain tumor occurred”.
